Data: US20220193132A1 (NATIONAL RESEARCH COUNCIL OF CANADA, published 2022)

B1: F265-9C9 (antibody, V domains shown)
VH: QVQLQQPGAELVKPGASVKLSCKASGYTFTSYWMHWVKQRPGQDLEWIGEIDPSDSYTNYNQKFKGKATLTVDKSSSTAYIQLSSLTSEDSALYYCARFDFAYWGQGTLVTVSA
VL: EIVLTQSPTLMAASPGEKVTITCSVSSSISSSNLHWYQQKSETSPKPWIYDTSNLASGVPIRFSGSGSGTSYSLTISSVEAEDAATYYCQQWSSYPLTFGSGTKLEIK
notes: Mouse hybridoma mAb
B2: F263-4E11 (antibody, V domains shown)
VH: DVQLQESGPGLVKPSQSLSLTCTVTGYSITSDYAWNWIRQFPGNKLEWMGYIGYNGRTSYNPSLKSRISITRDTSKNQFFLQLNYVTTEDTATFYCARLGRGFAYWGQGTLVTVSA
VL: DILMTQSPSSMSVSLGDTVSITCHASQGINSNIGWLLQKPGKSFKGLIYHGTNLEDGVPSRFSGSGSGTDYSLTISSLESEDFADYYCVQYAQFPYTFGGGTKLEIK
notes: Mouse hybridoma mAb

Legend:
[1] = target: T1, EGFRvIII amino acid residues 15 to 37 with Glu28 to Ala mutation (human); test: yeast display flow cytometry, Myc-normalized;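 further: Anti-EGFRvIII monoclonal antibodies tested by flow cytometry on yeast displaying alanine-substituted fragments, two-color indirect fluorescence with anti-Myc signal tracking fusion protein expression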
T1 construct: mutation is already in the entry
T1 peptide: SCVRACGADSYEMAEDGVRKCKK
From the text: (§1) Assessment of the binding of anti-EGFRvIII mAbs to the fusion proteins expressed on yeast cell surface was done by flow cytometry analysis. Briefly, yeast cells were labeled with both the anti-hEGFRvIII mAb and chicken anti-Myc antibody, the latter being used to monitor the level of expression of the fusion protein. Following a wash step, binding of the primary antibodies is probed by a two-color indirect fluorescence labeling using secondary antibodies specific for mouse and chicken antibodies, respectively.
(§2) To further characterize mAb epitopes within the EGFRvIII 15-37 region, an alanine scan of this region was performed, and modified fragments were expressed at the surface of the yeast. […] The resulting peptides were expressed at the surface of the yeast and each anti-EGFRvIII mAbs was tested on the corresponding yeast mutant strain by flow cytometry analysis. Thus, this assay determined the contribution of each amino acid(s) in the monoclonal antibody binding.

[2] = target: T2, EGFRvIII amino acid residues 15 to 37 with Met27 to Ala mutation (human); test: yeast display flow cytometry, Myc-normalized;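 further: Anti-EGFRvIII monoclonal antibodies tested by flow cytometry on yeast displaying alanine-substituted fragments, two-color indirect fluorescence with anti-Myc signal tracking fusion protein expression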
T2 construct: mutation is already in the entry
From the text: as §1, §2

[3] = target: T3, EGFRvIII amino acid residues 15 to 37 with Ser24 to Ala mutation (human); test: yeast display flow cytometry, Myc-normalized;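 further: Anti-EGFRvIII monoclonal antibodies tested by flow cytometry on yeast displaying alanine-substituted fragments, two-color indirect fluorescence with anti-Myc signal tracking fusion protein expression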
T3 construct: mutation is already in the entry
T3 peptide: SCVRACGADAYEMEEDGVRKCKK
From the text: as §1, §2

[4] = target: T4, EGFRvIII amino acid residues 15 to 37 with Asp30 to Ala mutation (human); test: yeast display flow cytometry, Myc-normalized;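 further: Anti-EGFRvIII monoclonal antibodies tested by flow cytometry on yeast displaying alanine-substituted fragments, two-color indirect fluorescence with anti-Myc signal tracking fusion protein expression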
T4 construct: mutation is already in the entry
T4 peptide: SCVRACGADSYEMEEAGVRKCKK
From the text: as §1, §2

[5] = target: T5, EGFRvIII amino acid residues 15 to 37 with Ser15 to Ala mutation (human); test: yeast display flow cytometry, Myc-normalized
T5 construct: mutation is already in the entry
T5 peptide: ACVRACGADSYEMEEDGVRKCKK
From the text: as §1, §2

[6] = target: T6, EGFRvIII amino acid residues 15 to 37 with Gly21 to Ala mutation (human); test: yeast display flow cytometry, Myc-normalized
T6 construct: mutation is already in the entry
T6 peptide: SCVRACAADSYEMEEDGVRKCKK
From the text: as §1, §2

[7] = target: T7, EGFRvIII amino acid residues 15 to 37 with Arg18 to Ala mutation (human); test: yeast display flow cytometry, Myc-normalized
T7 construct: mutation is already in the entry
T7 peptide: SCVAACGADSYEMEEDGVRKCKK
From the text: as §1, §2

[8] = target: T8, EGFRvIII amino acid residues 15 to 37 with Lys37 to Ala mutation (human); test: yeast display flow cytometry, Myc-normalized
T8 construct: mutation is already in the entry
T8 peptide: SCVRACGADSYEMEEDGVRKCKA
From the text: as §1, §2

[9] = target: T9, EGFRvIII amino acid residues 15 to 37 with Cys20 to Ala mutation (human); test: yeast display flow cytometry, Myc-normalized
T9 construct: mutation is already in the entry
T9 peptide: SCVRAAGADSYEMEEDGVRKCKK
From the text: as §1, §2

[10] = target: T10, EGFRvIII amino acid residues 15 to 37 with Asp23 to Ala mutation (human); test: yeast display flow cytometry, Myc-normalized
T10 construct: mutation is already in the entry
T10 peptide: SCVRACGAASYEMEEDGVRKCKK
From the text: as §1, §2

[11] = target: T11, EGFRvIII amino acid residues 15 to 37 with Glu29 to Ala mutation (human); test: yeast display flow cytometry, Myc-normalized
T11 construct: mutation is already in the entry
T11 peptide: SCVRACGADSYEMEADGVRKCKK
From the text: as §1, §2

[12] = target: T12, EGFRvIII amino acid residues 15 to 37 with Val17 to Ala mutation (human); test: yeast display flow cytometry, Myc-normalized
T12 construct: mutation is already in the entry
T12 peptide: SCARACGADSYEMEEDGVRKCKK
From the text: as §1, §2

[13] = target: T13, EGFRvIII amino acid residues 15 to 37 with Tyr25 to Ala mutation (human); test: yeast display flow cytometry, Myc-normalized
T13 construct: mutation is already in the entry
T13 peptide: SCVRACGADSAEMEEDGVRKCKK
From the text: as §1, §2

[14] = target: T14, EGFRvIII amino acid residues 15 to 37 with Lys36 to Ala mutation (human); test: yeast display flow cytometry, alanine scan
T14 construct: mutation is already in the entry
T14 peptide: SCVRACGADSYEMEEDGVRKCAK
From the text: as §1, §2

[15] = target: T15, EGFRvIII amino acid residues 15 to 37 with Lys34 to Ala mutation (human); test: yeast display flow cytometry, alanine scan
T15 construct: mutation is already in the entry
T15 peptide: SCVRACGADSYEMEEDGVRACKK
From the text: as §1, §2

[16] = target: T16, EGFRvIII amino acid residues 15 to 37 with Cys35 to Ala mutation (human); test: yeast display flow cytometry, alanine scan
T16 construct: mutation is already in the entry
T16 peptide: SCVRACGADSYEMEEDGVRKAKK
From the text: as §1, §2

[17] = target: T17, EGFRvIII amino acid residues 15 to 37 with Val32 to Ala mutation (human); test: yeast display flow cytometry, alanine scan
T17 construct: mutation is already in the entry
T17 peptide: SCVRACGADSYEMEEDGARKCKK
From the text: as §1, §2

[18] = target: T18, EGFRvIII amino acid residues 15 to 37 with Arg33 to Ala mutation (human); test: yeast display flow cytometry, alanine scan
T18 construct: mutation is already in the entry
T18 peptide: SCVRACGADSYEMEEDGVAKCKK
From the text: as §1, §2

[19] = target: T19, EGFRvIII amino acid residues 15 to 37 with Glu26 to Ala mutation (human); test: yeast display flow cytometry, alanine scan
T19 construct: mutation is already in the entry
T19 peptide: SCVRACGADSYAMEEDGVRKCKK
From the text: as §1, §2

[20] = target: T20, EGFRvIII, full length, overexpressed on glioblastoma cells (human, UniProt P00533 298-623); test: flow cytometry dose-response on U87MG-EGFRvIII cells, apparent Kd
T20 construct: Cells overexpress full length EGFRvIII (deletion of exons 2-7 of EGFR); Cell line (U87MG or DKMG) is named under assay; also called U87MG-EGFRvIII; U87vIII
Method: Prior to analysis, cells were plated such that they were not more than 80% confluent on the day of analysis. Unless otherwise stated, all media are kept are 4° C. and all incubations are performed on wet ice. Cells were washed in PBS, harvested by the addition of cell dissociation buffer (Sigma), centrifuged and resuspended in complete medium at a cell density of 2×10⁶ cells/mL. Fifty μL/well of cells were distributed in a polypropylene v-bottom 96 well plate and serial 1/3 dilutions of purified mAbs starting at 100 nM were added and incubated for 2 hours. […] Cells were washed and re-suspended in medium containing Propidium iodide to exclude dead cells from analysis. Samples were filtered through a 60 μm nylon mesh filter plate (Millipore, Ireland) to remove cell aggregates. Flow cytometry analyses were performed on 2,000 viable single-cells events gated on forward scattering, side scattering parameters and propidium iodide dye exclusion using a BD-LSRFortessa flow cytometer (Becton-Dickinson Biosciences, CA, USA) and a standard filter set using BD FACSDiva™ acquisition software, according to manufacturer's instructions.
Specific detection of antibody binding was calculated as the mean fluorescent intensity of binding to each primary antibody after background level subtraction of the mean fluorescent intensity of binding of mouse IgG control. The data were analyzed with GraphPad Prism v 6.0 software using one-site specific binding with Hill slope non-linear regression curve fit model to determine Bmax (maximum specific binding) and Kdₐₚₚ (concentration needed to achieve a half-maximum binding at equilibrium) for each mAb tested.

[21] = target: T21, recombinant human wild type EGFR protein (extracellular domain), denatured (human, UniProt P00533 25-645); test: ELISA Exp 1, mAb supernatant
T21 construct: Same protein as m23 after 95 C for 5 min in PBS with 40 mM DTT (denatured, reduced); also called wt EGFR Denatured
Method: (§3) Pre- and post-immune sera titers of animals were assessed by ELISA on recombinant EGFRvIII protein. Unless otherwise stated, all incubations were performed at room temperature. […] Microplates were washed three times in PBS and blocked for 30 min with PBS containing 1% bovine serum albumin (BSA, Sigma Cat #A7030). Blocking buffer was removed and 25 μl of serial dilutions of sera samples were added. […] After a 1-h incubation, microplates were washed 4 times and 25 μl of p-nitrophenyl phosphate (pNPP) substrate (Sigma-Aldrich Canada Co., Oakville, ON) at 1 mg/ml in carbonate buffer at pH 9.6 was added and further incubated for 30 min.
(§4) Antigens at 1-2 mg/ml were incubated at 95° C. for 5 min in PBS containing DTT at a final concentration of 40 mM. They were then incubated on ice for 5 min and diluted at their final coating concentration for ELISA purpose.
(§5) ELISA was performed as described above (serum titer determination) using 25 μl of mAb supernatant (Exp 1) or purified mAb at 1 μg/ml (Exp 2).

[22] = target: T22, recombinant human EGFRvIII protein (extracellular domain), native (human, UniProt P00533 298-623); test: ELISA Exp 1, mAb supernatant
T22 construct: also called hEGFRvIII
Method: as §3, §4, §5

[23] = target: T23, recombinant human EGFRvIII protein (extracellular domain), denatured (human, UniProt P00533 298-623); test: ELISA Exp 1, mAb supernatant
T23 construct: Same protein as m21 after 95 C for 5 min in PBS with 40 mM DTT (denatured, reduced); also called EGFRvIII Denatured
Method: as §3, §4, §5

[24] = target: T24, recombinant human wild type EGFR protein (extracellular domain), native (human, UniProt P00533 25-645); test: ELISA Exp 1, mAb supernatant
T24 construct: also called wt EGFR; EGFR WT
Method: as §3, §4, §5

[25] = target: T20, EGFRvIII, full length, overexpressed on …; test: cell-based or functional assay
[26] = target: T20, EGFRvIII, full length, overexpressed on …; test: cell-based or functional assay; remark: listed apart in the source
[27] = target: T25, EGFRvIII fragment amino acid residues 15 to 37, displayed on yeast (human); test: yeast surface display, flow cytometry
T25 construct: also called aa 15-37; fragment 15-37
T25 peptide: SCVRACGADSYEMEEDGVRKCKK
From the text: as §1

[28] = target: T21, recombinant human wild type EGFR …; test: ELISA Exp 2, purified mAb 1 ug/ml;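 further: ELISA of purified mAb binding to plate-coated antigen, native or heat/DTT-denatured, with pNPP substrate developed for 30 min and incubations at room temperature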
Method: as §3, §4, §5

[29] = target: T22, recombinant human EGFRvIII protein …; test: ELISA Exp 2, purified mAb 1 ug/ml;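 further: ELISA of purified mAb binding to plate-coated antigen, native or heat/DTT-denatured, with pNPP substrate developed for 30 min and incubations at room temperature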
Method: as §3, §4, §5

[30] = target: T23, recombinant human EGFRvIII protein …; test: ELISA Exp 2, purified mAb 1 ug/ml;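 further: ELISA of purified mAb binding to plate-coated antigen, native or heat/DTT-denatured, with pNPP substrate developed for 30 min and incubations at room temperature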
Method: as §3, §4, §5

[31] = target: T24, recombinant human wild type EGFR …; test: ELISA Exp 2, purified mAb 1 ug/ml;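 further: ELISA of purified mAb binding to plate-coated antigen, native or heat/DTT-denatured, with pNPP substrate developed for 30 min and incubations at room temperature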
Method: as §3, §4, §5

[32] = target: T14, EGFRvIII amino acid residues 15 to 37 …; test: yeast display flow cytometry, Myc-normalized
From the text: as §1, §2

[33] = target: T15, EGFRvIII amino acid residues 15 to 37 …; test: yeast display flow cytometry, Myc-normalized
From the text: as §1, §2

[34] = target: T17, EGFRvIII amino acid residues 15 to 37 …; test: yeast display flow cytometry, Myc-normalized
From the text: as §1, §2

[35] = target: T26, EGFRvIII amino acid residues 15 to 37 with Cys16 to Ala mutation (human); test: yeast display flow cytometry, Myc-normalized
T26 construct: mutation is already in the entry
T26 peptide: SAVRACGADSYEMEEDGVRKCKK
From the text: as §1, §2

[36] = target: T4, EGFRvIII amino acid residues 15 to 37 …; test: yeast display flow cytometry, alanine scan
From the text: as §1, §2

[37] = target: T9, EGFRvIII amino acid residues 15 to 37 …; test: yeast display flow cytometry, alanine scan
From the text: as §1, §2

[38] = target: T27, EGFRvIII amino acid residues 15 to 37 with Gly31 to Ala mutation (human); test: yeast display flow cytometry, alanine scan
T27 construct: mutation is already in the entry
T27 peptide: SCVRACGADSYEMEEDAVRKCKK
From the text: as §1, §2

[39] = target: wild type human EGFR, full length, overexpressed on U87MG cells (human, UniProt P00533 25-1210); test: cell-based or functional assay
[40] = target: T28, EGFRvIII fragment amino acid residues 19 to 37, displayed on yeast (human); test: yeast surface display, flow cytometry
T28 construct: also called aa 19-37
T28 peptide: ACGADSYEMEEDGVRKCKK
From the text: as §1

T2 sequence (peptide, as listed by the source, change not shown): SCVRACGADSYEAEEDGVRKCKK

Binder	% of binding vs wild-type fragment 15-37 [1] [%]	% of binding vs wild-type fragment 15-37 [2] [%]	% of binding vs wild-type fragment 15-37 [3] [%]	% of binding vs wild-type fragment 15-37 [5] [%]	% of binding vs wild-type fragment 15-37 [6] [%]	% of binding vs wild-type fragment 15-37 [7] [%]	% of binding vs wild-type fragment 15-37 [8] [%]	% of binding vs wild-type fragment 15-37 [10] [%]	% of binding vs wild-type fragment 15-37 [11] [%]	% of binding vs wild-type fragment 15-37 [12] [%]	% of binding vs wild-type fragment 15-37 [13] [%]	binding result [16]	binding result [18]	binding result [19]	Kd [20] [nM]	ELISA absorbance 405 nm [21] [A405]	ELISA absorbance 405 nm [22] [A405]	ELISA absorbance 405 nm [23] [A405]	ELISA absorbance 405 nm [24] [A405]	% survival (DM1 secondary-conjugate ADC surrogate assay, vs mouse IgG) [26] [%]	further results
B1	87.1	159	211	115	160	205	108	63.2	138	87.5	152	no binding (tested: 0-15% of wild-type binding)	no binding (tested: 0-15% of wild-type binding)	no binding (tested: 0-15% of wild-type binding)	> 200	0.064	1.2	1.72	0.21	82	% of binding vs wild-type fragment 15-37 [4]: 22.6%; % of binding vs wild-type fragment 15-37 [9]: 51.9%; binding result [14]: no binding (tested: 0-15% of wild-type binding); binding result [15]: no binding (tested: 0-15% of wild-type binding); binding result [17]: no binding (tested: 0-15% of wild-type binding); % internalization (pHrodo surrogate assay, vs 225 mAb) [25]: 87%; binding result [27]: binds; ELISA absorbance 405 nm [28]: 0.003 A405; ELISA absorbance 405 nm [29]: 1.29 A405; ELISA absorbance 405 nm [30]: 0.503 A405; ELISA absorbance 405 nm [31]: 0.038 A405
B2	90.9	102	170	94.9	180	102	191	58.4	75.3	148	83.3	no binding (tested: 0-15% of wild-type binding)	no binding (tested: 0-15% of wild-type binding)	no binding (tested: 0-15% of wild-type binding)	6.7	0.029	1.36	1.39	1.62	54	% of binding vs wild-type fragment 15-37 [32]: 110%; % of binding vs wild-type fragment 15-37 [33]: 130%; % of binding vs wild-type fragment 15-37 [34]: 30.4%; % of binding vs wild-type fragment 15-37 [35]: 176%; binding result [36]: no binding (tested: 0-15% of wild-type binding); binding result [37]: no binding (tested: 0-15% of wild-type binding); binding result [38]: no binding (tested: 0-15% of wild-type binding); % survival (DM1 secondary-conjugate ADC surrogate assay, vs mouse IgG) [39]: > 98%; binding result [40]: binds; ELISA absorbance 405 nm [28]: 0.001 A405; ELISA absorbance 405 nm [29]: 1.53 A405; ELISA absorbance 405 nm [30]: 0.997 A405; ELISA absorbance 405 nm [31]: 1.7 A405
